Data taken from US20110117086A1 (LES LABORATOIRES SERVIER, published 2011).
Where “and” joins values, the source holds several entries; their conditions need not be identical. Equal values may be shown once. Non-standard residues stand in square brackets, D forms with d. No end group written: not given here. KLH = keyhole limpet hemocyanin; Ahx = NCCCCCC(=O)O

Legend:
[1] = target: T1, Immunogen N2 = SWKPRSQQPDAPLG Ahx Cys KLH (human); assay: ELISA of hybridoma supernatants
T1 construct: hPG residues 1 to 14 with linker, coupled to the KLH carrier; also called KLH-linked N-terminal peptide
T1 peptide: SWKPRSQQPDAPLG[Ahx]C-{KLH}

[2] = target: T2, Recombinant human progastrin (human, UniProt P01350 22-101); assay: SPR (Proteon), MAb captured on anti-mouse IgG, hPG injected
T2 construct: 80-residue progastrin (pre-progastrin without the signal peptide); In the cell assays the target is the progastrin secreted by the CRC cell lines; also called hPG; PG
T2 sequence: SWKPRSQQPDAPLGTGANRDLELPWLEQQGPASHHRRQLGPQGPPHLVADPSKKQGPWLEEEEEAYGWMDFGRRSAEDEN
Method: To provide a more absolute quantification of affinity for the monoclonal antibodies, affinity constants were measured using the Proteon Technique (BioRad), according to Nahshol et al., 2008, Analytical Biochemistry 383:52-60, hereby incorporated by reference in its entirety. Briefly, an anti-mouse IgG antibody (50 μg/ml) was first coated on a sensor chip, making sure that the signal detected by the chip after injection of the antibody falls between 10,000 and 11,500 RU (response units). The murine monoclonal antibody to be tested was then injected (typical concentrations: 30 μg/ml). Sufficient binding of the antibody to be tested was determined based on a further signal of at least 500 RU on the sensor chip. A time-course of interaction between monoclonal anti-progastrin antibodies and progastrin was then measured by injecting varying concentrations of progastrin, for example 200, 100, 50, 25, and 12.5 nM, and the level of association detected. Typically, several channels are available to test multiple antibodies in parallel in a single experiment, making it possible to assay binding of test antibodies at varying concentrations of PG in parallel. Typically, one channel is reserved for a murine monoclonal antibody that is not specific to PG, as a control for non-specific binding, and another channel is injected with dilution buffer alone as a baseline for the background signal. Generally, no binding is detectable in the channels injected with non-specific murine antibody. Antibodies displaying a high level of association in this setting, which may result in saturation of the trapped monoclonal antibody by progastrin, can be tested against lower progastrin concentrations (50, 25, 12.5, 6.25 and 3.125 nM), allowing for a more refined measurement.
Affinity constants (KD) were calculated as the ratio between the dissociation constant (kd) and the association constant (ka). Experimental values were validated by analyzing the statistically relevant similarity between experimental curves based on binding measurements and theoretical profiles. The mathematical model used in the Proteon experiments to select whether experimental curves fit with the theoretical model was the Langmuir model, based on a 1:1 interaction between progastrin molecules and anti-progastrin monoclonal antibodies.

[3] = target: T2, Recombinant human progastrin; assay: ELISA on 50 ng coated hPG, antibody titrated, OD 492 nm, n=2
Method: After blocking, the wells were washed three times and the primary antibody—the antibody to be assayed—added. For initial screening of fused splenocytes, 50 μL of culture supernatant from each culture to be assayed was added to each well in the plate. In assays performed on monoclonal antibodies, 100 μL of the test antibody in PBS and 0.1% Tween-20 was added to each well. Plates were then incubated for 2 hours at 22° C., after which the primary antibody solution was discarded and replaced, after a wash step (3×100 μL wash solution, as noted above), with blocking solution containing the secondary antibody, which binds the primary antibody and is coupled to an enzyme. The secondary antibody was a goat anti-mouse IgG (Fc) antibody coupled to horseradish peroxidase. […] The reaction was then stopped by adding 50 μL of 4N sulfuric acid and the amount of substrate catalyzed determined by measuring the optical density (O.D.) at 492 nm. […] Samples were scored as positive for anti-PG antibodies if the measured O.D. was between 0.2 and 1.5. […]
Relative affinity of exemplary monoclonal antibodies was measured using the ELISA method described above, in which wells were coated with a peptide solution containing 50 ng progastrin and then incubated in the presence of increasing concentrations of each monoclonal antibody as follows: […]

[4] = target: T2, Recombinant human progastrin; assay: cell-based or functional assay
[5] = target: T2, Recombinant human progastrin; assay: cell-based or functional assay; remark: listed apart in the source
[6] = target: T2, Recombinant human progastrin; assay: cell-based or functional assay; remark: listed apart in the source
[7] = target: T2, Recombinant human progastrin; assay: cell-based or functional assay; remark: listed apart in the source
[8] = target: T2, Recombinant human progastrin; assay: competition ELISA: hPG captured by a C-terminal polyclonal antibody; MAb 3 titrated against 10 µg/ml biotinylated N-terminal anti-hPG polyclonal antibody; streptavidin-HRP, luminescence, n=2
Method: The ability of an anti-hPG monoclonal antibody to compete with an anti-hPG polyclonal antibody for binding to progastrin was determined using an ELISA with a “capture” anti-hPG antibody and a “detection” anti-hPG antibody. Anti-hPG MAb 3 was assayed as follows: 96-well plates were pre-coated with C-terminal progastrin polyclonal antibodies raised against a peptide consisting of residues 71 to 80 of hPG. The plates were then incubated with […] progastrin was incubated, followed by addition of 10 μg/ml biotinylated N-terminal anti-hPG polyclonal antibody, raised against a peptide consisting of the amino acid sequence of SEQ ID NO:25, and increasing concentrations of anti-hPG MAb 3 monoclonal antibody. Binding of the biotinylated N-terminal anti-hPG polyclonal antibody was detected by incubating the plates with streptavidin-HRP followed by OPD, according to standard protocols. Binding was measured by quantifying luminescence.

B1: Anti-hPG MAb 4 (antibody, V domains shown)
VH: QVQLQQSGAELMKPGASVKISCKATGYTFSSSWIEWLKQRPGHGLEWIGEFLPGSGSTDYNEKFKGKATFTADTSSDTAYMLLSSLTSEDSAVYYCATDGNYDWFAYWGQGTLVTVSA
VL: DLVMTQTPLSLPVSLGDQASISCRSSQSLVHSSGVTYLHWYLQKPGQSPKLLIYKVSNRFSGVPDRFSGSGSGTDFTLKISRVEAEDLGVYFCSQSTHVPPTFGSGTKLEIK
notes: Mouse IgG1, hybridoma 20D2C3G2, raised against immunogen N2; also called 20D2C3G2
- binding result [1]: binds
- Kd [2]: 3.5 nM
- EC50 (read off the curve) [3]: ~8 ng/mL

B2: Anti-hPG MAb 8 (antibody, V domains shown)
VH: EVQLVESGGGLVKPGGSLKLSCAASGFTFTTYAMSWVRQTPEKRLEWVATISSGGTYTYYPDSVKGRFTISRDNAKNALYLQMSSLRSEDTAMYYCATQGNYSLDFWGQGTSLTVSS
VL: DIVMTQAASSNPVTLGTSASISCRSSKSLRHTKGITFLYWYLQKPGQSPQLLIYQMSNLASGVPDRFSSSGSGTDFTLRISRVEAEDLGVYYCAQNLELPLTFGAGTKLELK
notes: Mouse IgG1, hybridoma 1C10D3B9, raised against immunogen C1; also called 1C10D3B9
- surviving SW 620 cells, % of control MAb-treated cells (cell numbers - T0) [4]: 40 % of control
- surviving LS 174T cells, % of control MAb-treated cells (cell numbers - T0) [5]: 42 % of control
- surviving HCT-116 cells, % of control MAb-treated cells (cell numbers - T0) [6]: 62 % of control
- viable LS174T cells (CellTiter 96 absorbance at 490 nm), % of control MAb; anti-hPG MAb 8 pre-incubated with 20-fold molar excess hPG [7]: 148 % of control
- Kd [2]: 0.1 nM and 0.108 nM

B3: Anti-hPG MAb 19 (antibody, V domains shown)
VH: DVQLQESGPGLVKPSQSLSLTCTVTGYSITSDYAWNWIRQFPGNKLEWMGYISFSGYTSYNPSLKSRISVTRDTSRNQFFLQLTSVTTEDTATYYCAREVNYGDSYHFDYWGQGTIVTVSS
VL: QLALTQSSSASFSLGASAKLTCTLSSQHRTYTIEWYQQQSLKPPKYVMEVKKDGSHSTGHGIPDRFSGSSSGADRYLSISNIQPEDEAIYICGVGDAIKGQSVFVFGGGTKVTVL
notes: Mouse IgG2, hybridoma 1B3B4F11, raised against immunogen N2; also called 1B3B4F11
- surviving SW 620 cells, % of control MAb-treated cells (cell numbers - T0) [4]: 69 % of control
- surviving LS 174T cells, % of control MAb-treated cells (cell numbers - T0) [5]: 84.5 % of control
- surviving HCT-116 cells, % of control MAb-treated cells (cell numbers - T0) [6]: 88 % of control
- Kd [2]: 0.7 nM and 0.779 nM

B4: Anti-hPG MAb 16 (antibody, V domains shown)
VH: QVQLQQSGAELVKPGASVKLSCKASGYTFTSYYMYWVKQRPGQGLEWIGEINPSNGGTNFNEKFKSKATLTVDKSSSTAYMQLSSLTSEDSAVYYCTRGGYYPFDYWGQGTTLTVSS
VL: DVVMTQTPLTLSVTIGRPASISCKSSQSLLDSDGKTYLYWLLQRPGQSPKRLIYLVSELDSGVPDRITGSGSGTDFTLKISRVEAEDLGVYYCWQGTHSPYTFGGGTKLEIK
notes: Mouse IgG1, hybridoma 1E9D9B6, raised against immunogen N2; also called 1E9D9B6
- surviving SW 620 cells, % of control MAb-treated cells (cell numbers - T0) [4]: 58 % of control
- surviving LS 174T cells, % of control MAb-treated cells (cell numbers - T0) [5]: 61 % of control
- Kd [2]: 0.2 nM and 0.278 nM
- EC50 (read off the curve) [3]: ~2 ng/mL

B5: Anti-hPG MAb 3 (antibody, V domains shown)
VH: EVQLQQSGTVLARPGASVKMSCKASGYIFTSYWVHWVKQRPGQGLEWIGGFYPGNSDSRYNQKFKGKATLTAVTSASTAYMDLSSLTNEDSAVYFCTRRDSPQYWGQGTTLTVSS
VL: DVLMTQTPLSLPVSLGDQASISCRSSQSIVHSNGNTYLEWYLQKPGQSPKLLIYKVSNRFSGVPDRFSGSGSGTDFTLKISRLEAEDLGVYYCFQGSHVPFTFGGGTKLEIK
notes: Mouse IgG1, hybridoma 6B5B11C10, raised against immunogen N2; also called 6B5B11C10
- binding result [1]: binds
- Kd [2]: 6.4 nM
- IC50 (read off the curve) [8]: ~4000 ng/mL

B6: Anti-hPG MAb 13 (antibody, V domains shown)
VH: EVQLVESGGGLVQPGGSLKLSCAASGFIFSSYGMSWVRQSPDRRLELVASINTFGDRTYYPDSVKGRFTISRDNAKNTLYLQMTSLKSEDTAIYYCARGTGTYWGQGTTLTVSS
VL: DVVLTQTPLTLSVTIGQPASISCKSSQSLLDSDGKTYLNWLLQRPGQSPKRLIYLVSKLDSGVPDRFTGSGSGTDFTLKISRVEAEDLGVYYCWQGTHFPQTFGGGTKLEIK
notes: Mouse IgG1, hybridoma 2C6C3C7, raised against immunogen C1; also called 2C6C3C7
- surviving SW 620 cells, % of control MAb-treated cells (cell numbers - T0) [4]: 48 % of control
- surviving LS 174T cells, % of control MAb-treated cells (cell numbers - T0) [5]: 58 % of control
- surviving HCT-116 cells, % of control MAb-treated cells (cell numbers - T0) [6]: 36 % of control
- Kd [2]: 0.6 nM and 0.612 nM
